The values that follow come from the supplement of paper PMC9170038.

The subject of this data set is MS2 coat protein. The data set can be described thus: apparent KD of MS2 coat protein; designed switch direction (-1 OFF switch, 1 ON switch): -1; higher = weaker reporter binding. The procedure, abridged:
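Apparent KD, taken as the median over clusters for each design, was obtained by curve-fitting normalised cluster fluorescence. Designed RNA switches had been transcribed on Illumina chips by stalled E. coli RNA polymerase and titrated with SNAP-549-labelled MS2 coat protein, doubling from 0.7 or 1.5 nM to 3 µM.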

Where [1] appears, read: Eterna round: R95, input ligand: FMN 200 uM.
Setting [2] is: Eterna round: R95, input ligand: microRNA oligo, concentration not stated.
Where [3] appears, read: Eterna round: R95, input ligand: none.
Where [4] appears, read: input ligand: microRNA oligo, concentration not stated.

“UAUUAAACAAGCAGGUCCCACAUGAGGAUCACCCAUGUGCUCGUCUUAUAAGGUACUGUGACGAAAGUCACGGUACC [Elimod 16 - Jieux - Sensor, turn-off variant 1] (Eterna round: R97, puzzle: Sensor, turn-off variant 1)”: the “apparent KD of MS2 coat protein” value was found to be 0.0372 µM (input ligand: FMN 200 uM) and 0.0401 µM (input ligand: none).
As for “UAUUAAACAUAGGAUAUCGAAAAUAUCAUUUAACGAGAAGGAUGAACAUGAGGAUCACCCAUGUGGUAUCAUGG [Mat - Exclusion 6 - JL Mod - D15] (puzzle: Exclusion 6)”, the “apparent KD of MS2 coat protein” value amounted to 0.426 µM under setting [1], 0.289 µM under setting [2] and 0.148 µM under setting [3].
In the case of “UAUUAACAAGCAAGAUCCUACAUGAGGAUCACCCAUGUGCUCGUCUUAUAAGGUACUGUGACGAAAGUCACGGUACC [Sensor 3, v1 - 70] (puzzle: Sensor v3, turn-off variant 1)”, the “apparent KD of MS2 coat protein” value reads like this: under setting [1], 0.294 µM; under setting [2], 0.0429 µM; under setting [3], 0.251 µM.
As to “UAUUAACAAGUAAGAUCCAACAUGAGGAUCACCCAUGUGCUCGUCUUAUAAGGUACUGUGACGAAAGUCACGGUACC [Eli 87 v1] (Eterna round: R97, puzzle: Sensor, turn-off variant 1)”, the “apparent KD of MS2 coat protein” value (input ligand: FMN 200 uM) is 0.0212 µM and the “apparent KD of MS2 coat protein” value (input ligand: none) was 0.0218 µM.
Take “UAUUACCCAAGCAGGUCCCACAUGAGGAUCACCCAUGUGCUCGUCUUAUAACGAUCUGUGGGAAAACCUACGGAUCG [Elimod 20 - Jieux - Sensor, turn-off variant 1] (Eterna round: R97, puzzle: Sensor, turn-off variant 1)”: the “apparent KD of MS2 coat protein” value came out at 0.0277 µM (input ligand: FMN 200 uM) and 0.0344 µM (input ligand: none).
“UAUUAGCAAGCAACUGGGUACAUGAGGAUCACCCAUGUGCUCGUCUUAUAAGGUACUGUGACGAAAGUCACUGUACC [mod--Eli14] (Eterna round: R97, puzzle: Sensor, turn-off variant 1)”: the “apparent KD of MS2 coat protein” value stood at 0.0178 µM (input ligand: FMN 200 uM) and 0.0163 µM (input ligand: none).
Consider “UAUUAGCAAGCAAGAUCCUACAUGAGGAUCACCCAUGUGCUCGUCUUAAGCCCAGAAUUACUGGGCGCUCGUCUUAU [Winner reversed engineered 21] (Eterna round: R97, puzzle: Sensor, turn-off variant 1)”, for which the “apparent KD of MS2 coat protein” value reads like this: (input ligand: FMN 200 uM) 0.521 µM; (input ligand: none) 0.684 µM.
On to “UAUUAGCAAGCAGGAUCCCACAUGAGGAUCACCCAUGUGCUCGUCUUAUAAGGUACUGUGACGAAAGUCACGGUACC [Sensor 3, v1 - 90] (puzzle: Sensor v3, turn-off variant 1)”, for which the “apparent KD of MS2 coat protein” value by setting is: under setting [1], 0.0813 µM; under setting [2], 0.186 µM; under setting [3], 0.0909 µM.
As for “UAUUAGUAAGGAUAUCUCUGCAUGGACGAAAGUCCAUGCAGAGAGAAGGUACAUGAGGAUCACCCAUGUUCAUU [Mod of Fisker 17 - Jieux - Exclusion 4] (Eterna round: R97, puzzle: Exclusion 4)”, the “apparent KD of MS2 coat protein” value (input ligand: FMN 200 uM) was found to be 0.0171 µM and the “apparent KD of MS2 coat protein” value (input ligand: none) was found to be 0.015 µM.
As for “UAUUAGUAAGGAUAUGAGCCGUAGGACGAAAGUCCUACGGCUCAGAAGGUACAUGAGGAUCACCCAUGUUUAUU [Mod of Fisker 6 - Jieux - Exclusion 4] (Eterna round: R97, puzzle: Exclusion 4)”, the “apparent KD of MS2 coat protein” value runs as follows: (input ligand: FMN 200 uM) 0.0225 µM; (input ligand: none) 0.0159 µM.
The matching figures for “UAUUCACAAGCGAGAUCCCACAUGAGGAUCACCCAUGUGCUCGUCUUAUAAGGUACUGUGACGAAAGUCACGGUACC [Sensor 3, v1 - 91 v25] (Eterna round: R97, puzzle: Sensor, turn-off variant 1)”: 0.0199 µM and 0.02 µM.
Turning to “UAUUCACAUGAGGAUCACCCAUGUCAGGAUAUAUUCGAUAUAUGGAAACAUAUAUCGAAUAGAAGGGACUAGCG [Jieuxxlusion 10 - Jieux - Exclusion 1] (Eterna round: R97, puzzle: Exclusion 1)”, the “apparent KD of MS2 coat protein” value (input ligand: FMN 200 uM) came out at 0.0546 µM.
“UAUUCGCGAGGAUAUGCAUUCGAGUCCAUUACGUGUCUGGGACUUGAGGAUCACCCAAGUAGAAGGCGUCUCAU [salish99_ex2_r4_643] (Eterna round: R97, puzzle: Exclusion 2)”: the “apparent KD of MS2 coat protein” value (input ligand: FMN 200 uM) came to 0.0997 µM and the “apparent KD of MS2 coat protein” value (input ligand: none) stood at 0.145 µM.
The matching figures for “UAUUGAGAGCAGGAUAUAUUCCUGAUGUAUGAAGUAGAAGGGCUCACAUGAGGAUCACCCAUGUGAUCCUGAAU [Mat - Exclusion 6 - Eli Mod - D5] (Eterna round: R97, puzzle: Exclusion 6)”: 0.0155 µM and 0.014 µM.
The matching figures for “UAUUUAGCAAGCAGAUCCCACAUGAGGAUCACCCAUGUUUUCUGAAUGUACAGAAUUACUGUACUUGCUCGUCUUAU [Winner reversed engineered 36] (Eterna round: R97, puzzle: Sensor, turn-off variant 1)”: 0.0762 µM and 0.0826 µM.
The matching figures for “UAUUUAGCAAGUAGAUCCUACAUGAGGAUCACCCAUGUGCUCUGAAAUAACGCAGAAUUACUGCGAGCUCGUCUUAU [Winner reversed engineered 28] (Eterna round: R97, puzzle: Sensor, turn-off variant 1)”: 1.08 µM and 1.56 µM.
“UAUUUGCAAGCGAGAUCCCACAUGAGGAUCACCCAUGUGCUCGUCUUAUAAGGUACUGUGACGAUAGUCACGGUACC [Mat - Sensor, turn-off var - Eli Mod - D89] (Eterna round: R97, puzzle: Sensor, turn-off variant 1)”: the “apparent KD of MS2 coat protein” value was found to be 0.014 µM (input ligand: FMN 200 uM) and 0.0144 µM (input ligand: none).
As for “UCAAGCUUUAGGCGUGUGAACAUGAGGAUCACCCAUGUAUUUUUGGUUAGGAGUUCUGUAAGGGAUGCUCGUCUUAU [JR_SWV3TOV1_Sub092] (puzzle: Sensor v3, turn-off variant 1)”, the “apparent KD of MS2 coat protein” value under setting [1] was 0.0575 µM, the “apparent KD of MS2 coat protein” value under setting [2] turned out to be 0.0548 µM and the “apparent KD of MS2 coat protein” value under setting [3] is 0.0758 µM.
In the same order, the values of “UCAAGUUUUUUGUUUUUUAACAUGAGGAUCACCCAUGUAUUUUUAUAGUAUGUGUGAAUAAGAUCUCUUUGUCUUAU [JR_SV3TOV1_Sub098] (puzzle: Sensor v3, turn-off variant 1)” are 0.0466 µM, 0.149 µM and 0.0495 µM.
For the sequence “UCACGGGACUAAGGAUAUACAUGAACUAUUAUUGUAGAAGGUAGAAUGUUAGAUUAUACACUAAACAUGAGGAUCACCCAUGUU [JR_ExcNG1_Sub094] (Eterna round: R96, puzzle: Exclusion NG 1)”, the “apparent KD of MS2 coat protein” value under setting [4] was determined as 0.0159 µM.
Consider “UCACGGGAUUGAGGAUAUAUUUAAAUUUUUACAAUAGAAGGCAAAUUUUUAGUUUUUUCACUUUACAUGAGGAUCACCCAUGUU [JR_ExcBG1_Sub082] (Eterna round: R96, puzzle: Exclusion NG 1)”, for which, under setting [4], the “apparent KD of MS2 coat protein” value stood at 0.0196 µM.
For “UCAUAACAUGAGGAUCACCCAUGUGAGGAUAUGAUACUAUGUACUUCGGUACAUAGUAUCAGAAGGCACAUACU [Ex1-3: 11] (puzzle: Exclusion 1)”, under setting [2], the “apparent KD of MS2 coat protein” value was determined as 0.0889 µM.
With “UCAUACGGUGAGGAUAUCUCCACUAAAGUGUGUAGAGAAGGCGCUACAUGAGGAUCACCCAUGUUUAUGGGCAG [Ex-6 Malc#13] (Eterna round: R96, puzzle: Exclusion 6)”, the “apparent KD of MS2 coat protein” value under setting [4] amounted to 0.236 µM.
Consider “UCAUACGGUGAGGAUAUCUCCACUAAAGUGUGUAGAGAAGGCGCUACAUGAGGAUCACCCAUGUUUAUGGGCAG [Ex-6 Malc#13] (puzzle: Exclusion 6)”, for which the “apparent KD of MS2 coat protein” value runs as follows: under setting [1], 0.052 µM; under setting [2], 0.109 µM; under setting [3], 0.124 µM.
As for “UCAUGUCCUGAGGAUAUCAAAGUCCUCCCGACAUGAGAAGGCAGGACAUGAGGAUCACCCAUGUGGAGCAGGGA [Sorareardi] (Eterna round: R97, puzzle: Exclusion 6)”, the “apparent KD of MS2 coat protein” value (input ligand: FMN 200 uM) is 0.0103 µM and the “apparent KD of MS2 coat protein” value (input ligand: none) came to 0.353 µM.
In the case of “UCCAACCCUGUGAGGAUAUCGUCCAUUAUUUGUAACGAGAAGGCACAUGAGGAUCACCCAUGUUUUUUAUUUUU [JR_BMOE4_Sub080] (puzzle: Brourd's mod of Exclusion 4)”, the “apparent KD of MS2 coat protein” value runs as follows: under setting [1], 0.0837 µM; under setting [2], 0.028 µM; under setting [3], 0.0225 µM.
For the sequence “UCCAUCCCUGUGAGGAUAUCGUCCGUUUUUUGUUCCGAGAAGGCACAUGAGGAUCACCCAUGUUUUUUGUUUUU [JR_BMOE4_Sub077] (puzzle: Brourd's mod of Exclusion 4)”, under setting [2], the “apparent KD of MS2 coat protein” value was determined as 0.0302 µM.
Regarding “UCCUCACAUGAGGAUCACCCAUGUCAGGAUAUAAGAAACGCGGCAGGCAGCCGCAAAAUUAGAAGGGACAUUAA [EX1 A.27] (Eterna round: R97, puzzle: Exclusion 1)”, the “apparent KD of MS2 coat protein” value by setting is: (input ligand: FMN 200 uM) 0.0475 µM; (input ligand: none) 0.0182 µM.
The matching figures for “UCCUCACCCAAGGAUAUCUGAGUCGGAACUAGCAGAGAAGGUGGCACAUGAGGAUCACCCAUGUAGACCAAUGC [Eternabot (L2) Solution 9] (Eterna round: R97, puzzle: Exclusion 6)”: 0.00787 µM and 0.00773 µM.
With “UCCUUACAUGAGGAUCACCCAUGUCAGGAUAUCUCCUCACUGCGCUUGCGCAGUGAAUAGAGAAGGGACGGGCU [JL ViennaUCT Aner mod 8] (puzzle: Exclusion 1)”, the “apparent KD of MS2 coat protein” value runs as follows: under setting [1], 0.0366 µM; under setting [2], 0.0324 µM; under setting [3], 0.0401 µM.
Take “UCCUUACAUGAGGAUCACCCAUGUGAGGAUAUGAGGGUUGAUUUAAAUGGGUUGAUUUUCAGAAGGCACAUGAA [JR_Ex1_Sub062] (Eterna round: R97, puzzle: Exclusion 1)”: the “apparent KD of MS2 coat protein” value is, setting by setting: (input ligand: FMN 200 uM) 0.0462 µM; (input ligand: none) 0.0509 µM.
